Laboratory results as given in paper PMC3049778.

Target: GST-H486R optineurin (human) (UniProt Q96CV9)
Test: pull-down; GST-optineurin or GST-H486R on glutathione agarose beads incubated 6-8 hours with lysates of HeLa cells transfected with HA-CYLD; anti-HA immunoblot

Sequence of UniProt Q96CV9 (Q96CV9 whole entry H486R): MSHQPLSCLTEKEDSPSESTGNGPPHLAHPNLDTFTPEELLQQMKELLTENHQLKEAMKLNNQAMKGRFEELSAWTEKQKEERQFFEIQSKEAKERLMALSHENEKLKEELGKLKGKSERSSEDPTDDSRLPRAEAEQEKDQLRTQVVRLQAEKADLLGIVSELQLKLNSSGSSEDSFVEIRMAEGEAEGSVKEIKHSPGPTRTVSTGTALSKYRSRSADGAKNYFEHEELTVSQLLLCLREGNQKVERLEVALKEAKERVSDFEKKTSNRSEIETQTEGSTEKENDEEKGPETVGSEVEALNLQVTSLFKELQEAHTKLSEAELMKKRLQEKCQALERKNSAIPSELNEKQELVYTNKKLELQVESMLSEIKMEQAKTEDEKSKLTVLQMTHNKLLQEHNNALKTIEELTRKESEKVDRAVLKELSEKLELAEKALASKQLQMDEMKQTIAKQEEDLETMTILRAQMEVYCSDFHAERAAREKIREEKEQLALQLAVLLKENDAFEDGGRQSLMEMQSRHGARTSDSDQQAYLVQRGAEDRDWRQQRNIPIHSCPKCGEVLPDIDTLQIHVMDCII

fold less binding than wild type optineurin: 5 fold
Substance: HA-tagged CYLD (CYLD cDNA obtained in the yeast two-hybrid screen, in pCDNA3.1-HA) (from UniProt Q9NQC7 403-956) (domain or fragment)
